Reference: US20230212304A1 (BIOSION, published 2023)
Numbering of substitutions follows the chain as printed.

T1: recombinant human CTLA4-his protein (Acro biosystems, Cat#CT4-H5229) (human, UniProt P16410 37-162)
T1 construct: bought recombinant protein; not shown: his tag
T1 sequence (looked up): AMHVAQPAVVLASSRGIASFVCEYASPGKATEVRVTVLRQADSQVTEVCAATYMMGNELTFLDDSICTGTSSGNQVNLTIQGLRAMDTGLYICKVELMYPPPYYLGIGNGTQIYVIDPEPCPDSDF

B1: huD1D5-V7 (antibody, human IgG4 S228P, kappa, V domains shown)
VH: EVQLVESGGGLVKPGGSLRLSCAASGFTFSDYGMAWVRQAPGKGLEWVAFISNLAYSVYYADTETGRFTISRDDAKNSLYLQMNSLRAEDTAVYYCARSGLPYAMDYWGQGTTVTVSS
VL: DIQMTQSPSSLSASVGDRVTITCRASQDISNYLNWYQQKPGKVPKLLIYYISRLHSGVPSRFSGSGSGTDFTLTISSLQPEDVATYFCQQGRMLPWTFGGGTKVEIKR
notes: humanized IgG4/kappa; tested as 293F cell supernatant on Octet; also called hu CTLA4 D1D5-V7
B2: huD1D5-V5 (antibody, human IgG4 S228P, kappa, V domains shown)
VH: B1 VH with L45P
VL: B1 VL
notes: humanized IgG4/kappa; tested as 293F cell supernatant on Octet; also called hu CTLA4 DID5-V5
B3: huD1D5-V3 (antibody, human IgG4 S228P, kappa, V domains shown)
VH: B1 VH
VL: B1 VL with V43T, P44V
notes: humanized IgG4/kappa; tested as 293F cell supernatant on Octet; also called hu CTLA4 D1D5-V3
B4: huD1D5-V11 (antibody, human IgG4 S228P, kappa, V domains shown)
VH: B1 VH
VL: B1 VL with F87Y
notes: humanized IgG4/kappa; tested as 293F cell supernatant on Octet; also called hu CTLA4 D1D5-V11
B5: huD1D5-V12 (antibody, human IgG4 S228P, kappa, V domains shown)
VH: B1 VH with A49S, D74N
VL: B1 VL with F87Y
notes: humanized IgG4/kappa; tested as 293F cell supernatant on Octet; also called hu CTLA4 D1D5-V12
B6: huD1D5-V6 (antibody, human IgG4 S228P, kappa, V domains shown)
VH: B1 VH with D74N
VL: B1 VL
notes: humanized IgG4/kappa; tested as 293F cell supernatant on Octet; also called hu CTLA4 D1D5-V6
B7: huD1D5-V2 (antibody, human IgG4 S228P, kappa, V domains shown)
VH: B1 VH with D74N
VL: B1 VL with V43T, P44V
notes: humanized IgG4/kappa; tested as 293F cell supernatant on Octet; also called hu CTLA4 D1D5-V2
B8: huD1D5-V1 (antibody, human IgG4 S228P, kappa, V domains shown)
VH: B1 VH with L45P
VL: B1 VL with V43T, P44V
notes: humanized IgG4/kappa; tested as 293F cell supernatant on Octet; also called huCTLA4 D1D5-V1
B9: huD1D5-V10 (antibody, human IgG4 S228P, kappa, V domains shown)
VH: B1 VH with D74N
VL: B1 VL with F87Y
notes: humanized IgG4/kappa; tested as 293F cell supernatant on Octet; also called hu CTLA4 D1D5-V10
B10: huD1D5-V4 (antibody, human IgG4 S228P, kappa, V domains shown)
VH: B1 VH with A49S, D74N
VL: B1 VL with V43T, P44V
notes: humanized IgG4/kappa; tested as 293F cell supernatant on Octet; also called hu CTLA4 D1D5-V4
B11: huD1D5-V8 (antibody, human IgG4 S228P, kappa, V domains shown)
VH: B1 VH with A49S, D74N
VL: B1 VL
notes: humanized IgG4/kappa; tested as 293F cell supernatant on Octet; also called hu CTLA4 D1D5-V8
B12: huC1D1-V5 (antibody, human IgG4 S228P, kappa, V domains shown)
VH: EVQLVESGGGLVQPGRSLRLSCTASGFTFSDNWMNWVRQAPGKGLEWVAQIRNKPYNYETYYSDSVKGRFTISRDDSKSIVYLQMNSLKTEDTAVYYCTGGMDYWGQGTTVTVSS
VL: DIQMTQSPSSLSASVGDRVTITCGASEIIYGALNWYQQKPGKSPKLLIYGATNLADGVPSRFSGSGSGTDFTLTISSLQPEDVATYYCQKILSPPPWTFGGGTKVEIKR
notes: humanized IgG4/kappa; tested as 293F cell supernatant on Octet; also called hu CTLA4 C1D1-V5
B13: huC1D1-V2 (antibody, human IgG4 S228P, kappa, V domains shown)
VH: B12 VH with V81A
VL: B12 VL with V58M, T69R, F71Y
notes: humanized IgG4/kappa; tested as 293F cell supernatant on Octet; also called hu CTLA4 C1D1-V2
B14: huC1D1-V7 (antibody, human IgG4 S228P, kappa, V domains shown)
VH: B12 VH with A49G
VL: B12 VL
notes: humanized IgG4/kappa; tested as 293F cell supernatant on Octet; also called hu CTLA4 C1D1-V7
B15: huC1D1-V4 (antibody, human IgG4 S228P, kappa, V domains shown)
VH: B12 VH with A49G, V81A
VL: B12 VL with V58M, T69R, F71Y
notes: humanized IgG4/kappa; tested as 293F cell supernatant on Octet; also called hu CTLA4 C1D1-V4
B16: huC1D1-V12 (antibody, human IgG4 S228P, kappa, V domains shown)
VH: B12 VH with A49G, V81A
VL: B12 VL with S43V
notes: humanized IgG4/kappa; tested as 293F cell supernatant on Octet; also called hu CTLA4 C1D1-V12; huC1D1-VI2
B17: huC1D1-V10 (antibody, human IgG4 S228P, kappa, V domains shown)
VH: B12 VH with V81A
VL: B12 VL with S43V
notes: humanized IgG4/kappa; tested as 293F cell supernatant on Octet; also called hu CTLA4 C1D1-V10
B18: huC1D1-V3 (antibody, human IgG4 S228P, kappa, V domains shown)
VH: B12 VH with A49G
VL: B12 VL with V58M, T69R, F71Y
notes: humanized IgG4/kappa; tested as 293F cell supernatant on Octet; also called hu CTLA4 C1D1-V3
B19: huC1D1-V6 (antibody, human IgG4 S228P, kappa, V domains shown)
VH: B12 VH with V81A
VL: B12 VL
notes: humanized IgG4/kappa; tested as 293F cell supernatant on Octet; also called hu CTLA4 C1D1-V6
B20: huC1D1-V11 (antibody, human IgG4 S228P, kappa, V domains shown)
VH: B12 VH with A49G
VL: B12 VL with S43V
notes: humanized IgG4/kappa; tested as 293F cell supernatant on Octet; also called hu CTLA4 C1D1-V11
B21: huC1D1-V9 (antibody, human IgG4 S228P, kappa, V domains shown)
VH: B12 VH
VL: B12 VL with S43V
notes: humanized IgG4/kappa; tested as 293F cell supernatant on Octet; also called hu CTLA4 C1D1-V9
B22: huC1D1-V1 (antibody, human IgG4 S228P, kappa, V domains shown)
VH: B12 VH
VL: B12 VL with V58M, T69R, F71Y
notes: humanized IgG4/kappa; tested as 293F cell supernatant on Octet; also called huCTLA4 C1D1-V1

Target: T1, recombinant human CTLA4-his protein …
Assay: BLI, Octet; antibody from cell supernatant on AHC sensor, CTLA4-his as analyte
Description: Briefly, AHC biosensors (anti-human IgG Fc capture, from ForteBio) were presoaked with 10 mM glycine (pH 1.5) for 3 seconds, and then dipped in a well with running buffer (0.5% w/v BSA in PBST) for 3 seconds, the soaking and dipping steps were repeated for three times. […] A new baseline was run for 180 seconds in another well with running buffer. […] Finally, sensors were presoaked with 10 mM glycine (pH 1.5) for 3 seconds, and then were dipped in a well with running buffer for 3 seconds, the soaking and dipping steps repeated for three times. The association and dissociation curves were fit to a 1:1 Langmuir binding model using ForteBio Data Analysis 8.1.

Binder | Kd [nM] | koff [s⁻¹] | kon [M⁻¹ s⁻¹]
B1 | 10.2 | 0.000857 | 83900
B2 | 1.73 | 0.00018 | 104000
B3 | < 0.001 | < 1e-07 | 115000
B4 | 6.94 | 0.000538 | 77500
B5 | 37.4 | 0.00133 | 35500
B6 | 25.8 | 0.00157 | 60900
B7 | 0.72 | 6.25e-05 | 86800
B8 | < 0.001 | < 1e-07 | 82000
B9 | 33 | 0.00163 | 49300
B10 | 4.36 | 0.000408 | 93500
B11 | 68.1 | 0.00196 | 28800
B12 | 2.08 | 0.000476 | 229000
B13 | 0.559 | 0.000149 | 267000
B14 | 0.362 | 0.000169 | 466000
B15 | 0.952 | 0.000229 | 240000
B16 | 0.995 | 0.000304 | 306000
B17 | 0.943 | 0.000304 | 322000
B18 | 1.16 | 0.000259 | 224000
B19 | 0.821 | 0.000287 | 349000
B20 | 1.25 | 0.000457 | 365000
B21 | 0.736 | 0.000228 | 310000
B22 | 0.184 | 4.61e-05 | 250000
